Assays:
Test in all cases: SPR
[1] = target: recombinant human IFNω (human, UniProt P05000 22-195)
[2] = target: T1, recombinant human IFNα4 (human, UniProt P05014 24-189)
T1 chain: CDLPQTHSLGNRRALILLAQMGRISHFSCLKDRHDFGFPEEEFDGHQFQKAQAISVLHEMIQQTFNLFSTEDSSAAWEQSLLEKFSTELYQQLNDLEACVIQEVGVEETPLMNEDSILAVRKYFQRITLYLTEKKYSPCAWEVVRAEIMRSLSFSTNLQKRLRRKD

[3] = target: T2, recombinant human IFNα14 (human, UniProt P01570 24-189)
T2 chain: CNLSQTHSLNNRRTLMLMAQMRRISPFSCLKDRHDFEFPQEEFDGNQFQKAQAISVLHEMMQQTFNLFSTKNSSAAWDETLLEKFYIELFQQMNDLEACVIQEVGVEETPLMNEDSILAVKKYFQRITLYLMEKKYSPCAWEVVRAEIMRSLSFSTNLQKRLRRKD

Sequence of recombinant human IFNω (P05000 22-195): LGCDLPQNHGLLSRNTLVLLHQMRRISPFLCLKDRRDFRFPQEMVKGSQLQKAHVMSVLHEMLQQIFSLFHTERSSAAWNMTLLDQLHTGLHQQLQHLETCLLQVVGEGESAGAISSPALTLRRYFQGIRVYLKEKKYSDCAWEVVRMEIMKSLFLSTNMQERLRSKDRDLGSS

B1: 26B9, APS1/APECED patient-derived anti-IFN monoclonal antibody (antibody, V domains shown)
VH: QILLQESGPGLVKPTETLSLTCSVSGDSISDSSHYWAWIRQPPGKGPEWIGSVYFSSMTHYNPSLKSRVSISVDKPKNQFSLKVTSVTVADTATYYCARQALARVGAMNWFDPWGQGSLVTVSS
VL: DIIMTQSPDSLPVSLGEGVTINCKSSQSVFFTSSNKSCLAWYQQKPGKSPKLLIYWASTRQSGVPDRFRGSGSGTDFSLTITSLQAEDVAVYFCQQCQTSPPTFGGGTRLEIK
In the case of B1, the Kd [1] is reported as 0.125 pM and the Kd [2] is reported as 0.0375 pM.

B2: 19D11, APS1/APECED patient-derived anti-IFN monoclonal antibody (antibody, V domains shown)
VH: QVQLVQSGAEVKRPGSSVRVSCRASGDTFSSYPISWVRQAPGQGLEWMGRILPALGVTNYAQNFRGRITITADKSPLTAYLELSSLRFEDTAVYYCASPSADIIPSILGTTLFAFWGQGSLVTVSS
VL: EIVLTQSPGTLSLSPGEGATLSCRASQNVSRHYLTWYQQKPGQSPRLLIYGGSSRATGVPDRFSGGGSGTDFTLTISRLEPEDFAVFYCQSYHSPPPVYTFGQGTKVEIK
In the case of B2, the Kd [2] is reported as 0.263 pM and the Kd [3] is reported as 0.0611 pM.
